Results taken from patent US20110318339A1.

How the values were obtained:
[1] = target: rHuman EGF R/Fc Chimera, CF (Cat# 344-ER, R&D Systems) (human) (UniProt P00533); assay: Multispot ECL; Fab 51 nM; blank 335
[2] = target: rHuman HGF R/c-MET/Fc Chimera, CF (Cat# 358-MT/CF, R&D Systems) (human) (UniProt P08581); assay: Multispot ECL; Fab 51 nM; blank 335
[3] = target: rHuman IGF-1 sR, (IGF-1 sR), CF (Cat# 391-GR, R&D Systems) (human) (UniProt P08069); assay: Multispot ECL; Fab 51 nM; blank 335
[4] = target: rHuman ErbB2/Fc Chimera, CF (Cat# 1129-ER, R&D Systems) (human) (UniProt P04626); assay: Multispot ECL; Fab 51 nM; blank 335
[5] = target: rHuman EGF R/Fc Chimera, CF (Cat# 344-ER, R&D Systems) (human) (UniProt P00533); assay: Multispot ECL; Fab 154 nM; blank 447
[6] = target: rHuman HGF R/c-MET/Fc Chimera, CF (Cat# 358-MT/CF, R&D Systems) (human) (UniProt P08581); assay: Multispot ECL; Fab 154 nM; blank 447
[7] = target: rHuman IGF-1 sR, (IGF-1 sR), CF (Cat# 391-GR, R&D Systems) (human) (UniProt P08069); assay: Multispot ECL; Fab 154 nM; blank 447
[8] = target: rHuman ErbB2/Fc Chimera, CF (Cat# 1129-ER, R&D Systems) (human) (UniProt P04626); assay: Multispot ECL; Fab 154 nM; blank 447
[9] = target: rHuman EGF R/Fc Chimera, CF (Cat# 344-ER, R&D Systems) (human) (UniProt P00533); assay: Multispot ECL; Fab 6 nM; blank 191
[10] = target: rHuman HGF R/c-MET/Fc Chimera, CF (Cat# 358-MT/CF, R&D Systems) (human) (UniProt P08581); assay: Multispot ECL; Fab 6 nM; blank 191
[11] = target: rHuman IGF-1 sR, (IGF-1 sR), CF (Cat# 391-GR, R&D Systems) (human) (UniProt P08069); assay: Multispot ECL; Fab 6 nM; blank 191
[12] = target: rHuman ErbB2/Fc Chimera, CF (Cat# 1129-ER, R&D Systems) (human) (UniProt P04626); assay: Multispot ECL; Fab 6 nM; blank 191
[13] = target: rHuman EGF R/Fc Chimera, CF (Cat# 344-ER, R&D Systems) (human) (UniProt P00533); assay: Multispot ECL; Fab 17 nM; blank 143
[14] = target: rHuman HGF R/c-MET/Fc Chimera, CF (Cat# 358-MT/CF, R&D Systems) (human) (UniProt P08581); assay: Multispot ECL; Fab 17 nM; blank 143
[15] = target: rHuman IGF-1 sR, (IGF-1 sR), CF (Cat# 391-GR, R&D Systems) (human) (UniProt P08069); assay: Multispot ECL; Fab 17 nM; blank 143
[16] = target: rHuman ErbB2/Fc Chimera, CF (Cat# 1129-ER, R&D Systems) (human) (UniProt P04626); assay: Multispot ECL; Fab 17 nM; blank 143
[17] = target: rHuman EGF R/Fc Chimera, CF (Cat# 344-ER, R&D Systems) (human) (UniProt P00533); assay: Multispot ECL; Fab 480 nM; blank 362
[18] = target: rHuman HGF R/c-MET/Fc Chimera, CF (Cat# 358-MT/CF, R&D Systems) (human) (UniProt P08581); assay: Multispot ECL; Fab 480 nM; blank 362
[19] = target: rHuman IGF-1 sR, (IGF-1 sR), CF (Cat# 391-GR, R&D Systems) (human) (UniProt P08069); assay: Multispot ECL; Fab 480 nM; blank 362
[20] = target: rHuman ErbB2/Fc Chimera, CF (Cat# 1129-ER, R&D Systems) (human) (UniProt P04626); assay: Multispot ECL; Fab 480 nM; blank 362
[21] = target: rHuman EGF R/Fc Chimera, CF (Cat# 344-ER, R&D Systems) (human) (UniProt P00533); assay: Multispot ECL; Fab 30 nM; blank 213
[22] = target: rHuman HGF R/c-MET/Fc Chimera, CF (Cat# 358-MT/CF, R&D Systems) (human) (UniProt P08581); assay: Multispot ECL; Fab 30 nM; blank 213
[23] = target: rHuman IGF-1 sR, (IGF-1 sR), CF (Cat# 391-GR, R&D Systems) (human) (UniProt P08069); assay: Multispot ECL; Fab 30 nM; blank 213
[24] = target: rHuman ErbB2/Fc Chimera, CF (Cat# 1129-ER, R&D Systems) (human) (UniProt P04626); assay: Multispot ECL; Fab 30 nM; blank 213
[25] = target: rHuman EGF R/Fc Chimera, CF (Cat# 344-ER, R&D Systems) (human) (UniProt P00533); assay: Multispot ECL; Fab 240 nM; blank 316
[26] = target: rHuman HGF R/c-MET/Fc Chimera, CF (Cat# 358-MT/CF, R&D Systems) (human) (UniProt P08581); assay: Multispot ECL; Fab 240 nM; blank 316
[27] = target: rHuman IGF-1 sR, (IGF-1 sR), CF (Cat# 391-GR, R&D Systems) (human) (UniProt P08069); assay: Multispot ECL; Fab 240 nM; blank 316
[28] = target: rHuman ErbB2/Fc Chimera, CF (Cat# 1129-ER, R&D Systems) (human) (UniProt P04626); assay: Multispot ECL; Fab 240 nM; blank 316
[29] = target: rHuman EGF R/Fc Chimera, CF (Cat# 344-ER, R&D Systems) (human) (UniProt P00533); assay: Multispot ECL; Fab 15 nM; blank 261
[30] = target: rHuman HGF R/c-MET/Fc Chimera, CF (Cat# 358-MT/CF, R&D Systems) (human) (UniProt P08581); assay: Multispot ECL; Fab 15 nM; blank 261
[31] = target: rHuman IGF-1 sR, (IGF-1 sR), CF (Cat# 391-GR, R&D Systems) (human) (UniProt P08069); assay: Multispot ECL; Fab 15 nM; blank 261
[32] = target: rHuman ErbB2/Fc Chimera, CF (Cat# 1129-ER, R&D Systems) (human) (UniProt P04626); assay: Multispot ECL; Fab 15 nM; blank 261
[33] = target: rHuman EGF R/Fc Chimera, CF (Cat# 344-ER, R&D Systems) (human) (UniProt P00533); assay: Multispot ECL; Fab 120 nM; blank 363
[34] = target: rHuman HGF R/c-MET/Fc Chimera, CF (Cat# 358-MT/CF, R&D Systems) (human) (UniProt P08581); assay: Multispot ECL; Fab 120 nM; blank 363
[35] = target: rHuman IGF-1 sR, (IGF-1 sR), CF (Cat# 391-GR, R&D Systems) (human) (UniProt P08069); assay: Multispot ECL; Fab 120 nM; blank 363
[36] = target: rHuman ErbB2/Fc Chimera, CF (Cat# 1129-ER, R&D Systems) (human) (UniProt P04626); assay: Multispot ECL; Fab 120 nM; blank 363
[37] = target: rHuman EGF R/Fc Chimera, CF (Cat# 344-ER, R&D Systems) (human) (UniProt P00533); assay: Multispot ECL; Fab 7.5 nM; blank 217
[38] = target: rHuman HGF R/c-MET/Fc Chimera, CF (Cat# 358-MT/CF, R&D Systems) (human) (UniProt P08581); assay: Multispot ECL; Fab 7.5 nM; blank 217
[39] = target: rHuman IGF-1 sR, (IGF-1 sR), CF (Cat# 391-GR, R&D Systems) (human) (UniProt P08069); assay: Multispot ECL; Fab 7.5 nM; blank 217
[40] = target: rHuman ErbB2/Fc Chimera, CF (Cat# 1129-ER, R&D Systems) (human) (UniProt P04626); assay: Multispot ECL; Fab 7.5 nM; blank 217
[41] = target: rHuman EGF R/Fc Chimera, CF (Cat# 344-ER, R&D Systems) (human) (UniProt P00533); assay: Multispot ECL; Fab 3.8 nM; blank 198
[42] = target: rHuman HGF R/c-MET/Fc Chimera, CF (Cat# 358-MT/CF, R&D Systems) (human) (UniProt P08581); assay: Multispot ECL; Fab 3.8 nM; blank 198
[43] = target: rHuman IGF-1 sR, (IGF-1 sR), CF (Cat# 391-GR, R&D Systems) (human) (UniProt P08069); assay: Multispot ECL; Fab 3.8 nM; blank 198
[44] = target: rHuman ErbB2/Fc Chimera, CF (Cat# 1129-ER, R&D Systems) (human) (UniProt P04626); assay: Multispot ECL; Fab 3.8 nM; blank 198
[45] = target: rHuman EGF R/Fc Chimera, CF (Cat# 344-ER, R&D Systems) (human) (UniProt P00533); assay: Multispot ECL; Fab 60 nM; blank 237
[46] = target: rHuman HGF R/c-MET/Fc Chimera, CF (Cat# 358-MT/CF, R&D Systems) (human) (UniProt P08581); assay: Multispot ECL; Fab 60 nM; blank 237
[47] = target: rHuman IGF-1 sR, (IGF-1 sR), CF (Cat# 391-GR, R&D Systems) (human) (UniProt P08069); assay: Multispot ECL; Fab 60 nM; blank 237
[48] = target: rHuman ErbB2/Fc Chimera, CF (Cat# 1129-ER, R&D Systems) (human) (UniProt P04626); assay: Multispot ECL; Fab 60 nM; blank 237

B1: Fab VH5-51_IGHD5-18*01>3_IGHJ4*01 & V3-4_IGLJ1*01 (Fab, V domains shown)
VH: EVQLVQSGAEVKKPGESLKISCKGSGYSFTSYWIGWVRQMPGKGLEWMGIIYPGDSDTRYSPSFQGQVTISADKSISTAYLQWSSLKASDTAMYYCARRGYSYGYDYFDYWGQGTLVTVSS
VL: QTVVTQEPSFSVSPGGTVTLTCGLSSGSVSTSYYPSWYQQTPGQAPRTLIYSTNTRSSGVPDRFSGSILGNKAALTITGAQADDESDYYCVLYMGSGISYVFGTGTKVTVL
- ECL signal [1]: 816
- ECL signal [2]: 1040
- ECL signal [3]: 1050
- ECL signal [4]: 1250
- ECL signal [5]: 1400
- ECL signal [6]: 1520
- ECL signal [7]: 1400
- ECL signal [8]: 1590
- ECL signal [9]: 742
- ECL signal [10]: 831
- ECL signal [11]: 854
- ECL signal [12]: 873
- ECL signal [13]: 805
- ECL signal [14]: 914
- ECL signal [15]: 872
- ECL signal [16]: 1030

B2: Fab VH6-1_IGHD3-3*01_IGHJ4*01 & V4-3_IGLJ4*01 (Fab, V domains shown)
VH: QVQLQQSGPGLVKPSQTLSLTCAISGDSVSSNSAAWNWIRQSPSRGLEWLGRTYYRSKWYNDYAVSVKSRITINPDTSKNQFSLQLNSVTPEDTAVYYCAREYYDFWSGYYTDYFDYWGQGTLVTVSS
VL: QPVLTQPTSLSASPGASARLTCTLRSGINLGSYRIFWYQQKPESPPRYLLSYYSDSSKHQGSGVPSRFSGSKDASSNAGILVISGLQSEDEADYYCMIWHSSASFVFGGGTQLIIL
- ECL signal [17]: 877
- ECL signal [18]: 951
- ECL signal [19]: 741
- ECL signal [20]: 965
- ECL signal [21]: 585
- ECL signal [22]: 640
- ECL signal [23]: 697
- ECL signal [24]: 726
- ECL signal [25]: 690
- ECL signal [26]: 834
- ECL signal [27]: 625
- ECL signal [28]: 833
- ECL signal [29]: 584
- ECL signal [30]: 694
- ECL signal [31]: 705
- ECL signal [32]: 713
- ECL signal [33]: 658
- ECL signal [34]: 785
- ECL signal [35]: 813
- ECL signal [36]: 822
- ECL signal [37]: 582
- ECL signal [38]: 558
- ECL signal [39]: 642
- ECL signal [40]: 695
- ECL signal [41]: 511
- ECL signal [42]: 519
- ECL signal [43]: 463
- ECL signal [44]: 714
- ECL signal [45]: 679
- ECL signal [46]: 623
- ECL signal [47]: 654
- ECL signal [48]: 777
